This note sets out measurements from US20120316071A1 (published 2012).

Test [1] addresses T1, rHuman HGF R/c-MET/Fc Chimera, CF (R&D Systems Cat#358-MT/CF) (human, UniProt P08581 25-932).
T1 construct: Bought recombinant protein; also called HGF R/Fc; hepatocyte growth factor receptor; Fc part of the bought chimera not given
Nature of the test: ECL (MSD) multispot binding assay, antigen spotted on plate, 20 nM Fab.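 Further: purified Fab incubated 1 h at 20 °C on antigen-spotted plate, bound Fab revealed with TAG detection antibody, ECL read, antigen signal divided by same-well blank, ratio ≥4 counted as hit.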

Test [2] concerns the target T2, Recombinant Human DLL4 (R&D Systems Cat#1506-D4/CF) (human, UniProt Q9NR61 27-524).
T2 construct: Bought recombinant protein; also called delta-like protein 4; rHuman DLL4
The description is as above.

The target in test [3] is T3, rHuman Erythropoietin R/Fc Chimera, CF (R&D Systems Cat#963-ER) (human, UniProt P19235 25-250).
T3 construct: Bought recombinant protein; also called EPO R; EPO R/Fc; Fc part of the bought chimera not given
T3 sequence (looked up): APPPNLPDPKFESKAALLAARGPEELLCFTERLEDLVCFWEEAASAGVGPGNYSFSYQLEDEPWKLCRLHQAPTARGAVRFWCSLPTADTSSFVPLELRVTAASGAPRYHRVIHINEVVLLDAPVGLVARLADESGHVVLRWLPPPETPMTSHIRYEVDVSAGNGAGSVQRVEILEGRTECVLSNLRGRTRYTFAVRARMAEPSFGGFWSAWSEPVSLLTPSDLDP
The test is described as above.

Test [4] addresses T4, rHuman ErbB2/Fc Chimera, CF (R&D Systems Cat#1129-ER) (human, UniProt P04626 23-652).
T4 construct: Bought recombinant protein; also called human epidermal growth factor 2 receptor; Fc part of the bought chimera not given
The test is described as above.

Test [5] deals with T5, rHuman IGF-1 sR, (IGF-1 sR), CF (R&D Systems Cat#391-GR) (human, UniProt P08069 31-932).
T5 construct: Bought recombinant soluble receptor; also called insulin-like growth factor-1 soluble receptor
The description is as above.

Test [6] has as its target T6, rHuman P-Cadherin/Fc Chimera, CF (R&D Systems Cat#861-PC) (human, UniProt P22223 108-654).
T6 construct: Bought recombinant protein; Fc part of the bought chimera not given
The test is described as above.

Test [7] has as its target T7, rHuman CD44/Fc Chimera, CF (R&D Systems Cat#3660-CD) (human, UniProt P16070 21-220).
T7 construct: Bought recombinant protein; Fc part of the bought chimera not given
Described as above.

Test [8] addresses T8, rHuman Notch-1/Fc Chimera, CF (R&D Systems Cat#3647-TK) (human, UniProt P46531 19-526).
T8 construct: Bought recombinant protein; Fc part of the bought chimera not given
The test is described as above.

For test [9], the target named is T9, rHuman EGF R/Fc Chimera, CF (R&D Systems Cat#344-ER) (human, UniProt P00533 25-645).
T9 construct: Bought recombinant protein; also called epidermal growth factor receptor; Fc part of the bought chimera not given
Described as above.

The target in test [10] is T10, rHuman Erythropoietin R/Fc Chimera, CF (R&D Systems Cat#963-ER) (human, UniProt P19235 25-250).
T10 construct: Bought recombinant protein; also called EPO R; EPO R/Fc; Fc part of the bought chimera not given
T10 sequence (looked up): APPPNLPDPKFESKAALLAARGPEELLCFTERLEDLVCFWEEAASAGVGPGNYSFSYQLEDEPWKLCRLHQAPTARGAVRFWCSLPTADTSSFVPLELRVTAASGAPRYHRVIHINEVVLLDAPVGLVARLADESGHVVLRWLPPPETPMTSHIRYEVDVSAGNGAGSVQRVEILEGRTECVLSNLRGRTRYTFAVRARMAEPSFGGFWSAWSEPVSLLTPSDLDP
Nature of the test: ECL multispot (MSD) assay, antigen spotted on plate, 20 nM Fab.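 Further: purified Fab bound to plate-spotted antigen for 1 h at 20 °C, labelled detection antibody added, ratio of antigen ECL signal to same-well blank, ratio ≥4 counted as binder.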

Test [11] concerns the target T11, rHuman P-Cadherin/Fc Chimera, CF (R&D Systems Cat#861-PC) (human, UniProt P22223 108-654).
T11 construct: Bought recombinant protein; Fc part of the bought chimera not given
The description is as above.

Test [12] has as its target T12, rHuman CD44/Fc Chimera, CF (R&D Systems Cat#3660-CD) (human, UniProt P16070 21-220).
T12 construct: Bought recombinant protein; Fc part of the bought chimera not given
Described as above.

The target of test [13] is T13, rHuman IGF-1 sR, CF (R&D Systems Cat#391-GR) (human, UniProt P08069 31-932).
T13 construct: Bought soluble receptor; also called insulin-like growth factor-1 soluble receptor
Described as above.

Test [14] addresses T14, rHuman EGF R/Fc Chimera, CF (R&D Systems Cat#344-ER) (human, UniProt P00533 25-645).
T14 construct: Bought recombinant protein; also called epidermal growth factor receptor; Fc part of the bought chimera not given
The description is as above.

The target of test [15] is T15, Recombinant Human DLL4 (R&D Systems Cat#1506-D4/CF) (human, UniProt Q9NR61 27-524).
T15 construct: Bought recombinant protein; also called delta-like protein 4; rHuman DLL4
The description is as above.

Test [16] has as its target T16, rHuman ErbB2/Fc Chimera, CF (R&D Systems Cat#1129-ER) (human, UniProt P04626 23-652).
T16 construct: Bought recombinant protein; also called human epidermal growth factor 2 receptor; Fc part of the bought chimera not given
The description is as above.

In test [17] the target is T17, rHuman Notch-1/Fc Chimera, CF (R&D Systems Cat#3647-TK) (human, UniProt P46531 19-526).
T17 construct: Bought recombinant protein; Fc part of the bought chimera not given
Described as above.

Test [18] has as its target T18, Recombinant Human DLL4 (delta-like protein 4) (human, UniProt Q9NR61 27-524).
T18 construct: also called rHuman DLL4; Delta-like 4
Description: ELISA on coated DLL4, Fab at 100 nM (2-fold serial dilution). For orientation: In an ELISA, binding on a coated surface is turned into a signal by an enzyme label.

The target in test [19] is T18, Recombinant Human DLL4 (delta-like …). Description: ELISA on coated DLL4, Fab at 6.25 nM (2-fold serial dilution).
For test [20] the target is unchanged. Nature of the test: ELISA on coated DLL4, Fab at 25 nM (2-fold serial dilution).
The target is the same in test [21]. Description: ECL (MSD) binding assay, Fab on immobilised recombinant human DLL4.
Test [22] shares this target. Description: ELISA, Fab on coated DLL4, absorbance at 450 nm.
The target is the same in test [23]. Description: ELISA on coated DLL4, Fab at 12.5 nM (2-fold serial dilution).
For test [24] the target is unchanged. Description: ELISA on coated DLL4, Fab at 3.125 nM (2-fold serial dilution).
The target is the same in test [25]. Nature of the test: ELISA on coated DLL4, Fab at 50 nM (2-fold serial dilution).

T1 sequence (P08581 25-932, change not shown): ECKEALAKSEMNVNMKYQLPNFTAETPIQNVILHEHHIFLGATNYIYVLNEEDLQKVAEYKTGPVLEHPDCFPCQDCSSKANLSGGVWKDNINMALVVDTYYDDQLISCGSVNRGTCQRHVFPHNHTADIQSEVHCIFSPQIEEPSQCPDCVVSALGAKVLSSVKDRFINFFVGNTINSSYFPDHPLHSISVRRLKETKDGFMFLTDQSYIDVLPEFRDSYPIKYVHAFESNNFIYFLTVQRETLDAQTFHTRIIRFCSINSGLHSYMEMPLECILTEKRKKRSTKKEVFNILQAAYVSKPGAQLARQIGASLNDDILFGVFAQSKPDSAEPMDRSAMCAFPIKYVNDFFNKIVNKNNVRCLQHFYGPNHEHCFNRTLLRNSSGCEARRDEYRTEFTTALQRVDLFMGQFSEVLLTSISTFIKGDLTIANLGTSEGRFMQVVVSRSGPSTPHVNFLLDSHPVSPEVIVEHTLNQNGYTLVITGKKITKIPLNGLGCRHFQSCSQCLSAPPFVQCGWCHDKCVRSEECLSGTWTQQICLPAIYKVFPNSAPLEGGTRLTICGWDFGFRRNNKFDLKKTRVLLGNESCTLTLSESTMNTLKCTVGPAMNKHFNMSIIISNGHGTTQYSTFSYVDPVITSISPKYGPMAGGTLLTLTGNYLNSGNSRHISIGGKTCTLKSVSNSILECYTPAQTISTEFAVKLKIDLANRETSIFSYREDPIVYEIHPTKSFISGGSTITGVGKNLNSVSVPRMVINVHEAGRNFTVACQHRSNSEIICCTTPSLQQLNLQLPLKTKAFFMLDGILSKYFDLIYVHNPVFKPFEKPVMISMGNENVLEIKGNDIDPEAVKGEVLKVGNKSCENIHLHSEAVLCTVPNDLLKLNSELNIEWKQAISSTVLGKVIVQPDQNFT

B1: Fab VH3-23_IGHD2-21*01>3_IGHJ6*01 H100E/S108P/Y113G/Y110G & V2-13_IGLJ2*01 (Fab, V domains shown)
VH: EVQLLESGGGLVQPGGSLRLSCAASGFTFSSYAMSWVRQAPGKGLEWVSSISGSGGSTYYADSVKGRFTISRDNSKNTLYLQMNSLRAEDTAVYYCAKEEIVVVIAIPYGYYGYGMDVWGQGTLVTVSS
VL: SSELTQDPAVSVALGQTVRITCQGDSLRSYYASWYQQKPGQAPVLVIYGKNNRPSGIPDRFSGSSSGNTASLTITGAQAEDEADYYCNSRDSSGNHLVVFGGGTKLTVL
notes: Fab made in E. coli: VH joined to CH1 (with His and Flag tags, plasmid A) and VL to lambda CL (plasmid E); also called EPG Y110G
On to B1, for which the “ECL signal/blank ratio” value worked out at 1 in test [1]; 1.3 in test [2]; 2 in [3]; 1.3 in test [4]; 1.4 in [5]; 0.8 in test [6]. Further, the “ECL signal/blank ratio” value in test [7] is 1; in [8] it was 1.6; in test [9], 1.5.

B2: Fab VH3-23_IGHD2-21*01>3_IGHJ6*01 H100E/S108P/Y113G T58A & V2-13_IGLJ2*01 (Fab, V domains shown)
VH: EVQLLESGGGLVQPGGSLRLSCAASGFTFSSYAMSWVRQAPGKGLEWVSSISGSGGSAYYADSVKGRFTISRDNSKNTLYLQMNSLRAEDTAVYYCAKEEIVVVIAIPYYYYGYGMDVWGQGTLVTVSS
VL: SSELTQDPAVSVALGQTVRITCQGDSLRSYYASWYQQKPGQAPVLVIYGKNNRPSGIPDRFSGSSSGNTASLTITGAQAEDEADYYCNSRDSSGNHLVVFGGGTKLTVL
notes: Tested as a Fab made in E. coli; also called EPG T58A
On to B2, for which the “ECL signal/blank ratio (read-out not given)” value in test [10] amounted to 158; in test [11], 36.9; in [12] it was 1.5; in test [13], 1.2; in test [14], 9.6; in [15], 2.3. In addition, in test [16], the “ECL signal/blank ratio (read-out not given)” value is 15.9.

B3: Fab VH3-23_IGHD2-21*01>3_IGHJ6*01 H100E/S108P/Y113G A61T & V2-13_IGLJ2*01 (Fab, V domains shown)
VH: EVQLLESGGGLVQPGGSLRLSCAASGFTFSSYAMSWVRQAPGKGLEWVSSISGSGGSTYYTDSVKGRFTISRDNSKNTLYLQMNSLRAEDTAVYYCAKEEIVVVIAIPYYYYGYGMDVWGQGTLVTVSS
VL: SSELTQDPAVSVALGQTVRITCQGDSLRSYYASWYQQKPGQAPVLVIYGKNNRPSGIPDRFSGSSSGNTASLTITGAQAEDEADYYCNSRDSSGNHLVVFGGGTKLTVL
notes: Tested as a Fab made in E. coli; also called EPG A61T
In the case of B3, the “ECL signal/blank ratio (read-out not given)” value in [17] is 2.9; in test [11], 20.9; in [12], 2; in [13], 1.6; in [14], 7.1; in test [15], 2.6. Further, the “ECL signal/blank ratio (read-out not given)” value in test [16] came out at 11.2.

B4: Fab VH3-23_IGHD2-21*01>3_IGHJ6*01 H100E/S108P/Y113G/Y111E & V2-13_IGLJ2*01 (Fab, V domains shown)
VH: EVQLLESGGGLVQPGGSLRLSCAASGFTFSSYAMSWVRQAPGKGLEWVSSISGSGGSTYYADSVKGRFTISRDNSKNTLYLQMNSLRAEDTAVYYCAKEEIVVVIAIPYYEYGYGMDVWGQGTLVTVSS
VL: SSELTQDPAVSVALGQTVRITCQGDSLRSYYASWYQQKPGQAPVLVIYGKNNRPSGIPDRFSGSSSGNTASLTITGAQAEDEADYYCNSRDSSGNHLVVFGGGTKLTVL
notes: Fab made in E. coli: VH joined to CH1 (with His and Flag tags, plasmid A) and VL to lambda CL (plasmid E); also called EPG Y111E
Turning to B4, the “ECL signal/blank ratio” value in test [1] stood at 2.2; in test [2] it was 1.5; in [4], 1.5; in test [5] it was 1.4; in test [6], 2.3; in [7], 1.1. Besides, the “ECL signal/blank ratio” value worked out at 1.5 in test [8] and 1.4 in test [9].

B5: Fab VH3-23_IGHD2-21*01>3_IGHJ6*01 H100E/S108P/Y113G D62A & V2-13_IGLJ2*01 (Fab, V domains shown)
VH: EVQLLESGGGLVQPGGSLRLSCAASGFTFSSYAMSWVRQAPGKGLEWVSSISGSGGSTYYAASVKGRFTISRDNSKNTLYLQMNSLRAEDTAVYYCAKEEIVVVIAIPYYYYGYGMDVWGQGTLVTVSS
VL: SSELTQDPAVSVALGQTVRITCQGDSLRSYYASWYQQKPGQAPVLVIYGKNNRPSGIPDRFSGSSSGNTASLTITGAQAEDEADYYCNSRDSSGNHLVVFGGGTKLTVL
notes: Tested as a Fab made in E. coli; also called EPG D62A
As to B5, the “ECL signal/blank ratio (read-out not given)” value in test [10] was determined as 244; in test [11] it was 45.8; in test [12], 2; in [13] it was 1.4; in test [14], 11.6; in [15], 2.4. Besides, the “ECL signal/blank ratio (read-out not given)” value in test [16] stood at 21.7.

B6: Fab VH3-23_IGHD2-21*01>3_IGHJ6*01 H100E/S108P/Y113G/Y111P & V2-13_IGLJ2*01 (Fab, V domains shown)
VH: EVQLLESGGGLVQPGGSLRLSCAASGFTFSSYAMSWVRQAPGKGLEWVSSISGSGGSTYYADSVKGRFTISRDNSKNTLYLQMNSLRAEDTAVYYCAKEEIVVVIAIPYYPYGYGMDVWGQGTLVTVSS
VL: SSELTQDPAVSVALGQTVRITCQGDSLRSYYASWYQQKPGQAPVLVIYGKNNRPSGIPDRFSGSSSGNTASLTITGAQAEDEADYYCNSRDSSGNHLVVFGGGTKLTVL
notes: Fab made in E. coli: VH joined to CH1 (with His and Flag tags, plasmid A) and VL to lambda CL (plasmid E); also called EPG Y111P
B6: the “ECL signal/blank ratio” value in test [1] amounted to 1.7; in test [2], 1.4; in test [3] it was 1.9; in test [4], 1.6; in [5], 1.2; in [6], 1.3. The “ECL signal/blank ratio” value came out at 1.3 in test [7], 1.6 in [8] and 1.5 in [9].

B7: Fab VH5-51_IGHD5-18*01>3_IGHJ4*01 G100K/G104T (KT) & V3-4_IGLJ1*01 R56A (Fab, V domains shown)
VH: EVQLVQSGAEVKKPGESLKISCKGSGYSFTSYWIGWVRQMPGKGLEWMGIIYPGDSDTRYSPSFQGQVTISADKSISTAYLQWSSLKASDTAMYYCARRKYSYTYDYFDYWGQGTLVTVSS
VL: QTVVTQEPSFSVSPGGTVTLTCGLSSGSVSTSYYPSWYQQTPGQAPRTLIYSTNTASSGVPDRFSGSILGNKAALTITGAQADDESDYYCVLYMGSGISYVFGTGTKVTVL
notes: Fab; also called H:KT & L:R56A
For B7, the ELISA signal in [18] was 0.251; in test [19], 0.2; in [20] it was 0.227; in [22], 0.27; in test [23], 0.212; in [24], 0.213. Moreover, in test [25], the ELISA signal worked out at 0.239. Further, the “ECL signal” value in test [21] amounted to 83900.
